Reference: patent publication US20130007924A1

How the values were obtained:
[1] = target: putative receptor proteins in brush border membrane vesicles (BBMV) from European corn borer (Ostrinia nubilalis) larval midgut (Ostrinia nubilalis); assay: homologous competition: unlabeled Cry1Ab against 0.5 nM 125I Cry1Ab on ECB BBMV
[2] = target: putative receptor proteins in brush border membrane vesicles (BBMV) from European corn borer (Ostrinia nubilalis) larval midgut (Ostrinia nubilalis); assay: heterologous competition: unlabeled Cry2Aa at 1,000 nM against 0.5 nM 125I Cry1Ab on ECB BBMV

Substance: Cry1Ab protein (truncated Cry toxin) (from UniProt P0A370 29-612)
- IC50 [1]: 3 nM

Substance: Cry2Aa protein (from UniProt P0A377 1-633)
- percent displacement of 125I Cry1Ab at 1,000 nM competitor [2]: < 50%
